The record followed here is the RNAGym collection of RNA variant scans (doi:10.1093/molbev/msab373).

The chains are these.
B1: Azoarcus group I ribozyme (parent)
chain: GUGCCUUGCGCCGGGAAACCACGCAAGGGAUGGUGUCAAAUUCGGCGAAACCUAAGCGCCCGCCCGGGCGUAUGGCAACGCCGAGCCAAGCUUCGGCGCCUGCGCCGAUGAAGGUGUAGAGACUAGACGGCACCCACCUAAGGCAAACGCUAUGGUGAAGGCAUAGUCCAGGGAGUGGCGAAAGUCACACAAACCGG

In the data set the parent is B1. The experiment in a line: reverse-splicing fitness (ratio to wild type); higher = more active; in vitro selection; Mg2+ level not given. A digest of the protocol: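 An in vitro group I ribozyme library with randomized positions was T7-transcribed and gel-purified. In triplicate, 10 pmol RNA in EPPS pH 7.5 was reacted with 50 pmoles of a 30-nt RNA substrate for 1 h at 37 °C across several added MgCl2 levels (1–48 mM), then stopped with EDTA. Products were reverse transcribed from a substrate-complementary primer, PCR-amplified and sequenced (HiSeq 4000). Fitness is a variant's read proportion after selection over that before, normalised to wild type.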
For GUGCCUUGCGCCGGGAAACCACGCAAGGGAUGGUGUCAAAUUCGGCGAAACCUAAGCGCCCGCCCGGGCGUAUGGCAACGCGGAGCCAAGCUUCGGCGCCUGCGCCGAUGGAGGUGUAGGGACUAGACGGCACCCACCUAAGGCCAACGUUAUGGUGAAGGCAUAGUCUAGGGAGCGGCGAAAGUCACACAAACCGG [C82G A111G A120G A145C C150U C169U U176C], the reverse-splicing fitness amounted to 0.0151.

In the case of GUGCCUUGCGCCGGGAAACCACGCAAGGGAUGGUGUCAAAUUCGGCGAAACCUAAGCGCCCGCCCGGGCGUAUGGCAACGCGGAGCCAAGCUUCGGCGCCUGCGCCGAUGGAGGUGUAGGGACUAGACGGCACCCACCUAAGGCCAACGUUAUGGUGAAGGCAUAGUCUAGGGAGGGGCGAAAGUCACACAAACCGG [C82G A111G A120G A145C C150U C169U U176G], the reverse-splicing fitness was 0.00538.

In the case of GUGCCUUGCGCCGGGAAACCACGCAAGGGAUGGUGUCAAAUUCGGCGAAACCUAAGCGCCCGCCCGGGCGUAUGGCAACGCGGAGCCAAGCUUCGGCGCCUGCGCCGAUGGAGGUGUAGGGACUAGACGGCACCCACCUAAGGCCAACGUUAUGGUGAAGGCAUAGUCUAGGGAGAGGCGAAAGUCACACAAACCGG [C82G A111G A120G A145C C150U C169U U176A], the reverse-splicing fitness amounted to 0.0174.

Take GUGCCUUGCGCCGGGAAACCACGCAAGGGAUGGUGUCAAAUUCGGCGAAACCUAAGCGCCCGCCCGGGCGUAUGGCAACGCGGAGCCAAGCUUCGGCGCCUGCGCCGAUGGAGGUGUAGGGACUAGACGGCACCCACCUAAGGCCAACGUUAUGGUGAAGGCAUAGUCGAGGGAGGGGCGAAAGUCACACAAACCGG [C82G A111G A120G A145C C150U C169G U176G]: the reverse-splicing fitness was 0.00557.

GUGCCUUGCGCCGGGAAACCACGCAAGGGAUGGUGUCAAAUUCGGCGAAACCUAAGCGCCCGCCCGGGCGUAUGGCAACGCGGAGCCAAGCUUCGGCGCCUGCGCCGAUGGAGGUGUAGGGACUAGACGGCACCCACCUAAGGCCAACGUUAUGGUGAAGGCAUAGUCGAGGGAGAGGCGAAAGUCACACAAACCGG [C82G A111G A120G A145C C150U C169G U176A]: the reverse-splicing fitness was found to be 0.022.

GUGCCUUGCGCCGGGAAACCACGCAAGGGAUGGUGUCAAAUUCGGCGAAACCUAAGCGCCCGCCCGGGCGUAUGGCAACGCGGAGCCAAGCUUCGGCGCCUGCGCCGAUGGAGGUGUAGGGACUAGACGGCACCCACCUAAGGCCAACGUUAUGGUGAAGGCAUAGUCGAGGGAGCGGCGAAAGUCACACAAACCGG [C82G A111G A120G A145C C150U C169G U176C]: the reverse-splicing fitness is 0.0155.

As to GUGCCUUGCGCCGGGAAACCACGCAAGGGAUGGUGUCAAAUUCGGCGAAACCUAAGCGCCCGCCCGGGCGUAUGGCAACGCGGAGCCAAGCUUCGGCGCCUGCGCCGAUGGAGGUGUAGGGACUAGACGGCACCCACCUAAGGCCAACGUUAUGGUGAAGGCAUAGUCGAGGGAGUGGCGAAAGUCACACAAACCGG [C82G A111G A120G A145C C150U C169G], the reverse-splicing fitness was determined as 0.0111.

On to GUGCCUUGCGCCGGGAAACCACGCAAGGGAUGGUGUCAAAUUCGGCGAAACCUAAGCGCCCGCCCGGGCGUAUGGCAACGCGGAGCCAAGCUUCGGCGCCUGCGCCGAUGGAGGUGUAGGGACUAGACGGCACCCACCUAAGGCCAACGUUAUGGUGAAGGCAUAGUCUAGGGAGUGGCGAAAGUCACACAAACCGG [C82G A111G A120G A145C C150U C169U], for which the reverse-splicing fitness was determined as 0.0088.

On to GUGCCUUGCGCCGGGAAACCACGCAAGGGAUGGUGUCAAAUUCGGCGAAACCUAAGCGCCCGCCCGGGCGUAUGGCAACGCGGAGCCAAGCUUCGGCGCCUGCGCCGAUGGAGGUGUAGGGACUAGACGGCACCCACCUAAGGCCAACGUUAUGGUGAAGGCAUAGUCAAGGGAGUGGCGAAAGUCACACAAACCGG [C82G A111G A120G A145C C150U C169A], for which the reverse-splicing fitness stood at 0.00962.

Turning to GUGCCUUGCGCCGGGAAACCACGCAAGGGAUGGUGUCAAAUUCGGCGAAACCUAAGCGCCCGCCCGGGCGUAUGGCAACGCGGAGCCAAGCUUCGGCGCCUGCGCCGAUGGAGGUGUAGGGACUAGACGGCACCCACCUAAGGCCAACGGUAUGGUGAAGGCAUAGUCCAGGGAGGGGCGAAAGUCACACAAACCGG [C82G A111G A120G A145C C150G U176G], the reverse-splicing fitness was 0.00368.

GUGCCUUGCGCCGGGAAACCACGCAAGGGAUGGUGUCAAAUUCGGCGAAACCUAAGCGCCCGCCCGGGCGUAUGGCAACGCGGAGCCAAGCUUCGGCGCCUGCGCCGAUGGAGGUGUAGGGACUAGACGGCACCCACCUAAGGCCAACGGUAUGGUGAAGGCAUAGUCCAGGGAGAGGCGAAAGUCACACAAACCGG [C82G A111G A120G A145C C150G U176A]: the reverse-splicing fitness amounted to 0.0082.

As to GUGCCUUGCGCCGGGAAACCACGCAAGGGAUGGUGUCAAAUUCGGCGAAACCUAAGCGCCCGCCCGGGCGUAUGGCAACGCGGAGCCAAGCUUCGGCGCCUGCGCCGAUGGAGGUGUAGGGACUAGACGGCACCCACCUAAGGCCAACGGUAUGGUGAAGGCAUAGUCCAGGGAGCGGCGAAAGUCACACAAACCGG [C82G A111G A120G A145C C150G U176C], the reverse-splicing fitness was 0.0133.

As for GUGCCUUGCGCCGGGAAACCACGCAAGGGAUGGUGUCAAAUUCGGCGAAACCUAAGCGCCCGCCCGGGCGUAUGGCAACGCGGAGCCAAGCUUCGGCGCCUGCGCCGAUGGAGGUGUAGGGACUAGACGGCACCCACCUAAGGCCAACGUUAUGGUGAAGGCAUAGUCCAGGGAGUGGCGAAAGUCACACAAACCGG [C82G A111G A120G A145C C150U], the reverse-splicing fitness was 0.00975.

Turning to GUGCCUUGCGCCGGGAAACCACGCAAGGGAUGGUGUCAAAUUCGGCGAAACCUAAGCGCCCGCCCGGGCGUAUGGCAACGCGGAGCCAAGCUUCGGCGCCUGCGCCGAUGGAGGUGUAGGGACUAGACGGCACCCACCUAAGGCCAACGGUAUGGUGAAGGCAUAGUCCAGGGAGUGGCGAAAGUCACACAAACCGG [C82G A111G A120G A145C C150G], the reverse-splicing fitness was 0.00711.

As to GUGCCUUGCGCCGGGAAACCACGCAAGGGAUGGUGUCAAAUUCGGCGAAACCUAAGCGCCCGCCCGGGCGUAUGGCAACGCGGAGCCAAGCUUCGGCGCCUGCGCCGAUGGAGGUGUAGGGACUAGACGGCACCCACCUAAGGCCAACGGUAUGGUGAAGGCAUAGUCAAGGGAGAGGCGAAAGUCACACAAACCGG [C82G A111G A120G A145C C150G C169A U176A], the reverse-splicing fitness was determined as 0.0102.
